This note sets out measurements from US20240309093A1 (MINGHUI PHARMACEUTICAL HANGZHOU, published 2024).

For assay [1], the target named is T1, recombinant human PD-1-Fc-Biotin (human, UniProt Q15116 25-167, biotin (site not stated)).
T1 construct: also called antigen protein human PD-1; not shown: Fc
As to the kind of experiment: competitive ELISA; PD-L1-mFc coated, 0.5 µg/mL PD-1-Fc-Biotin, streptavidin-HRP. The procedure:
The plates were washed three times with PBST. 5% PBS-Milk was added and incubated at room temperature for 1 hr. All the nanobody-Fc fusion proteins were subject to 3-fold gradient dilutions with an initial concentration of 10 μg/mL, added into each well at 30 μL/well, and incubated at room temperature for 1 hr. […] The plates were washed with PBST between incubations.
For orientation: In an ELISA, binding on a coated surface is turned into a signal by an enzyme label.

The target in assay [2] is T2, recombinant human PD-1-his protein (human, UniProt Q15116 25-167).
T2 construct: also called hPD-1-his; not shown: his tag
Put plainly: ELISA; PD-1-his coated 2 µg/mL, anti-human IgG Fc-HRP. The procedure:
(§1) The plates were washed three times with PBST. 5% PBS-Milk and incubated at room temperature for 2 h. The plates were washed three times with PBST. All the nanobody-Fc fusion proteins were subject to 3-folded gradient dilution with an initial concentration of 10 μg/mL, added into each well at 30 μL/well, and incubated at room temperature for 1 hr. The plates were washed three times with PBST. The secondary antibody Goat-Anti-Human-IgG-Fc-HRP was diluted at 1:8000, added into each well at 30 μL/well, and incubated at room temperature for 50 min. The plates were washed nine times with PBST. TMB was added into each well at 30 μL/well and developed at room temperature in dark for 1 min to 5 min. 2 M hydrochloric acid was added at 30 μL/well to stop the reaction. The OD450 absorbance value was read by a microplate reader. Graphpad Prism software was used to fit the curve and calculate EC₅₀ values.

Assay [3] has as its target PD1 on Jurkat-NFAT-PD1 transgene cells. As to the kind of experiment: cell-based or functional assay.
For assay [4], the target named is T2, recombinant human PD-1-his protein. Put plainly: ELISA; PD-1-his coated 2 µg/mL, anti-human IgG Fc-HRP. The protocol:
as §1, with “PBS-Milk was added” for “PBS-Milk”, “3-fold” for “3-folded”, “dilutions” for “dilution”, “calculate the” for “calculate”, “value (see Table 7).” for “values.”
This is another data set of the same source.

The target in assay [5] is T1, recombinant human PD-1-Fc-Biotin. As to the kind of experiment: competitive ELISA; PD-L1-mFc coated, 0.5 µg/mL PD-1-Fc-Biotin, streptavidin-HRP. The procedure: The plates were washed three times with PBST. 5% PBS-Milk was added and incubated at room temperature for 1 hr. All the nanobody-Fc fusion proteins were subject to 3-fold gradient dilutions with an initial concentration of 10 μg/mL, added into each well at 30 μL/well, and incubated at room temperature for 1 hr. […] The well plates were washed with PBST between incubations.
This is another data set of the same source.

The target in assay [6] is T2, recombinant human PD-1-his protein. Put plainly: ELISA (second round of humanization); PD-1-his coated 2 µg/mL, anti-human IgG Fc-HRP. The protocol:
(§2) 96-well ELISA plates were coated with 2 μg/mL of recombinant human PD-1-his antigen protein at 30 μL/well at 4° C. overnight. The plates were washed three times with PBST. 5% PBS-Milk was added and incubated at room temperature for 2 h. The plates were washed three times with PBST. All the nanobody-Fc fusion proteins were subject to 3-fold gradient dilutions with an initial concentration of 10 μg/mL, added into each well at 30 μL/well, and incubated at room temperature for 1 hr. The plates were washed three times with PBST. The secondary antibody Goat-Anti-Human-IgG-Fc-HRP (purchased from Sigma) was diluted at 1:8000, added into each well at 30 μL/well, and incubated at room temperature for 50 min. The plates were washed three times with PBST. TMB (purchased from SurModics) was added into each well at 30 μL/well and developed at room temperature in dark for 1 min to 5 min. 2 M hydrochloric acid was added at 30 μL/well to stop the reaction. The OD450 absorbance value was read by a microplate reader.

Assay [7] has as its target T3, human PD-1 on HEK293 cells overexpressing human PD-1 (human, UniProt Q15116 25-288).
T3 construct: whole, on cells; also called HEK293/hPD1; hPD-1
As to the kind of experiment: flow cytometry on HEK293 cells overexpressing human PD-1; PE-anti-human IgG. The protocol:
HEK293 cells overexpressing the human PD-1 were cultured in a DMEM medium containing 10% FBS in a CO₂ incubator (37° C., 5% CO₂). The cells were harvested and washed once with test buffer. Cells were counted and detected for viability. […] The cells were washed with washing buffer, and 100 μL of PE-anti-human IgG was added in accordance with the instruction and incubated in dark at 4° C. for 1 hr. The cells were washed three times with washing buffer, and individual samples were re-suspended in 200 μL of PBS and detected by flow cytometer. The data were analyzed using FCS Express 6 Plus and GraphPad Prism 5 software.
In general terms: In flow cytometry, cells or beads pass a laser one at a time.

The target of assay [8] is T4, recombinant mouse PD-1-his protein (mouse, UniProt Q02242 25-167, limits assumed).
T4 construct: not shown: his tag
T4 sequence (looked up): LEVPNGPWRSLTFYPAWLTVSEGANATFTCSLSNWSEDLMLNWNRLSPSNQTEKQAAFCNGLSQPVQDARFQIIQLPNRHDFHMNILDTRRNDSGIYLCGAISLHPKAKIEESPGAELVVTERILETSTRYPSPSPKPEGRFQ
As to the kind of experiment: ELISA; PD-1-his coated 2 µg/mL, anti-human IgG-HRP. The procedure: Ninety-six-well Greiner plates were coated with 2 μg/mL of recombinant human PD-1-his protein, recombinant monkey PD-1-his protein and recombinant mouse PD-1-his protein at 4° C. overnight. The next day, the plates were blocked with 1% casein. […] Then, the plates were washed with PBST. Anti-human IgG-HRP (diluted in 1% casein at 1:5000) was added and incubated for 1 hr., and binding detection was performed.

For assay [9], the target named is T5, recombinant human PD-1 (C-Fc & C-Avi & C-6×His) (human, UniProt Q15116 25-167).
T5 construct: not shown: C-terminal Fc, Avi tag and 6×His tag
As to the kind of experiment: competitive ELISA; PD-L1 (C-Fc) coated, 0.5 µg/mL PD-1 (C-Fc & C-Avi & C-6×His), streptavidin-HRP. The protocol: The plates were blocked with 1% casein. […] The plates were washed with PBST between incubations. Horseradish peroxidase-labelled streptavidin (1:10000) was used for detection, and Graphpad Prism software was used to fit the curve and calculate the EC₅₀ value, with the results shown in Table 3.

The target of assay [10] is T2, recombinant human PD-1-his protein. As to the kind of experiment: ELISA (first round of humanization); PD-1-his coated 2 µg/mL, anti-human IgG Fc-HRP. The protocol:
as §2

For assay [11] the target is unchanged. As to the kind of experiment: SPR (Biacore 8K); PD-1-his amine-coupled to CM5, 1:1 Langmuir fit. The protocol:
About 250RU of recombinant human PD-1-his protein was coupled to a CM5 chip at 25° C. using an amine coupling kit (GE Healthcare, Cat No. BR100050) according to standard amine coupling procedure. […] (five concentrations were detected). The binding time was 120 s, and the dissociation time was 600 s. The curve was fitted with 1:1 Langmuir binding model using Biacore®8K analysis software (BIAevaluation) to determine the kinetic constants thereof, such as, association rate constant, dissociation rate constant, equilibrium dissociation constant, etc.
In general terms: In SPR one partner is held on a chip, and binding of the other changes the refractive index at the surface.

In assay [12] the target is T3, human PD-1 on HEK293 cells …. Put plainly: competitive flow cytometry on HEK293 cells overexpressing human PD-1; 1.0 µg/mL biotinylated human PD-L1 as competitor, PE-SA. The procedure:
The cells were harvested and washed once with test buffer. […] The data were analyzed using FCS Express 6 Plus and GraphPad Prism 5 software.

The target in assay [13] is T6, recombinant human PD-1 protein (human, UniProt Q15116 25-167, limits assumed).
T6 construct: also called recombinant human PD-1 antigen; human recombinant PD-1
Put plainly: competitive ELISA; PD-1 coated 2 µg/mL, 4 µg/mL PD-L1-Fc as competitor, anti-human IgG-HRP. The procedure: Ninety-six-well plates were coated with recombinant human PD-1 antigen (2 μg/mL) at 4° C. overnight. The plates were blocked with 1% casein. […] The plates were washed with PBST between incubations.

Substitutions are numbered along the chain they refer to. Where two headings read alike, the source gives them in different places.

T1 sequence (Q15116 25-167 limits assumed): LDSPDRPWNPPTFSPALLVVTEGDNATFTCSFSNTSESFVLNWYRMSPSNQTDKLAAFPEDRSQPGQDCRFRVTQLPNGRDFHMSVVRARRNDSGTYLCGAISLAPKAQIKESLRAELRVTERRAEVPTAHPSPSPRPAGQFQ
T2 sequence (Q15116 25-167 limits assumed): as above
T3 sequence (Q15116 25-288): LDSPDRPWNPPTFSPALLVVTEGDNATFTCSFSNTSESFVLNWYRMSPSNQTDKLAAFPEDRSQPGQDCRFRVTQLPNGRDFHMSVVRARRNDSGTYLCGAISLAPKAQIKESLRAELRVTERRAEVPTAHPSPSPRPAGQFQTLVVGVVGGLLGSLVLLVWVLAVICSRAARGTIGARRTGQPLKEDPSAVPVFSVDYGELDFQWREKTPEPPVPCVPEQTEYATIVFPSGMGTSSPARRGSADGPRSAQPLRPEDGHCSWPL
T6 sequence (Q15116 25-167 limits assumed): as the sequence (Q15116 25-167 limits assumed) above
T5 sequence (Q15116 25-167 limits assumed): as above

B1: MHPD1-A-7 H Fc (Fc fusion)
chain: QVQLVESGGGLVQPGGSLRLSCATSGSRRSIYAMGWFRQAPGKGLEFVAGIGWAYATTYYADSVKGRFTISRDNTKNTLYLQMNSLRAEDTAVYYCAADLDHSGFDYWGQGTLVTVSS
notes: parent of the second round; also called parent MHPD1-A-7 H Fc; not shown: Fc
For the molecule B1, the figures for the IC50 in assay [1] and in [5] were 0.778 nM and 0.316 nM, respectively. For the same molecule, the EC50 (commonly the concentration giving half of the maximal effect) in [2] turned out to be 0.149 nM; in assay [4] it was 0.135 nM. Besides, in assay [3], the “luciferase reporter gene fluorescence signal, Jurkat-NFAT-PD1 effector cells with Hep3B-OS8-PDL1 target cells (EC50)” value was 0.07 nM.

B2: MHPD1-A-H19 Fc (Fc fusion, not shown: a dimerising Fc or GST; small tags and cut ends)
VHH: B1 chain with T24A, R28D, R29P, A54S, Y55A
notes: Second round of humanization; also called humanized nanobody-Fc fusion protein; parent MHPD1-A-H19 Fc
In the case of B2, the EC50 amounted to 0.55 nM in assay [6] and 0.369 nM in assay [4]. Besides, the IC50 (usually the concentration that inhibits the measured activity by half) in [5] was 1.31 nM.

B3: MHPD1-A-H15 Fc (Fc fusion, not shown: a dimerising Fc or GST; small tags and cut ends)
VHH: B1 chain with L11S, T24A, R28D, R29P, G44E, L45H, A54S, Y55A, V93I
notes: Second round of humanization of MHPD1-A; also called humanized nanobody-Fc fusion protein
In the case of B3, the EC50 in assay [6] came to 2.15 nM.

B4: MHPD1-A-H18 Fc (Fc fusion, not shown: a dimerising Fc or GST; small tags and cut ends)
VHH: B1 chain with T24A, R28D, R29P, A54S, Y55A, V93I
notes: as for B3
As for B4, the EC50 in assay [6] is 1.29 nM.

B5: MHPD1-A-4 H Fc (Fc fusion, not shown: a dimerising Fc or GST)
chain: B1 chain with T24A, R28V, R29G, Y55F
B5: the “luciferase reporter gene fluorescence signal, Jurkat-NFAT-PD1 effector cells with Hep3B-OS8-PDL1 target cells (EC50)” value in assay [3] stood at 0.09 nM. In assay [4], the EC50 amounted to 0.169 nM. Moreover, the IC50 in assay [5] turned out to be 0.281 nM.

B6: MHPD1-A-3 H Fc (Fc fusion, not shown: a dimerising Fc or GST; small tags and cut ends)
VHH: B1 chain with T24A, R28G, A54S
Regarding B6, in [3], the “luciferase reporter gene fluorescence signal, Jurkat-NFAT-PD1 effector cells with Hep3B-OS8-PDL1 target cells (EC50)” value amounted to 0.078 nM. Besides, in [4], the EC50 turned out to be 0.251 nM. Also, in assay [5], the IC50 turned out to be 0.275 nM.

B7: MHPD1-A-H17 Fc (Fc fusion, not shown: a dimerising Fc or GST; small tags and cut ends)
VHH: B1 chain with L11S, T24A, R28D, R29P, A54S, Y55A, V93I
notes: as for B3
On to B7, for which, in assay [6], the EC50 was determined as 0.64 nM.

B8: MHPD1-A-H12 Fc (Fc fusion, not shown: a dimerising Fc or GST; small tags and cut ends)
VHH: QVQLVESGGGSVQPGGSLRLSCAASGSDPSIYAMGWFRQAPGKEHEFVAGIGWSAATTYYADSVKGRFTISRDNTKNTLALLMNSLRAEDTAIYYCAADLDHSGFDYWGQGTLVTVSS
notes: as for B3
Take B8: in assay [6], the EC50 came to 4.32 nM.

B9: MHPD1-A-H16 Fc (Fc fusion, not shown: a dimerising Fc or GST; small tags and cut ends)
VHH: B8 VHH with S11L, T69G, L79V, I93V
notes: as for B3
Regarding B9, the EC50 in assay [6] was determined as 2.29 nM.

B10: MHPD1-A-H14 Fc (Fc fusion, not shown: a dimerising Fc or GST; small tags and cut ends)
VHH: B8 VHH with T69G, L79V, A80Y, L82Q
notes: as for B3
Consider B10, for which the EC50 in assay [6] amounted to 1.88 nM.

B11: MHPD1-A Fc (Fc fusion)
chain: B8 VHH with P14V, R19T, T69G, L79V, R87K, A88P, L113Q
notes: C-terminal of VHH directly connected to the N-terminal of the human Fc hinge region; also called nanobody-Fc fusion protein; fusion protein; not shown: human Fc fragment with hinge
For the molecule B11, the EC50 in assay [7] amounted to 0.245 µg/mL; in [9], 0.499 µg/mL; in assay [10] it was 0.14 µg/mL; in assay [12], 0.549 µg/mL. For the same molecule, the binding result in assay [8] was “no binding (tested: 5 µg/mL and 1.67 µg/mL)”. In assay [11], the Kd (commonly the concentration at which binding is half-saturated) stood at 0.0425 nM. Moreover, in assay [11], the koff (in general, the first-order rate constant of dissociation) was determined as 1.95e-05 s⁻¹. Further, the kon – broadly, the second-order rate constant of association – in assay [11] amounted to 460000 M⁻¹ s⁻¹.

B12: MHPD1-A (VHH)
VHH: B8 VHH with P14V, R19T, T69G, L79V, R87K, A88P, L113Q
notes: tag not described; also called VHH; single-domain antibody MHPD1-A
Turning to B12, the EC50 in [13] was determined as 1.71 µg/mL.

B13: Pembrolizumab (antibody, human IgG4 S228P, kappa, V domains shown)
VH: QVQLVQSGVEVKKPGASVKVSCKASGYTFTNYYMYWVRQAPGQGLEWMGGINPSNGGTNFNEKFKNRVTLTTDSSTTTAYMELKSLQFDDTAVYYCARRDYRFDMGFDYWGQGTTVTVSS
VL: EIVLTQSPATLSLSPGERATLSCRASKGVSTSGYSYLHWYQQKPGQAPRLLIYLASYLESGVPARFSGSGSGTDFTLTISSLEPEDFAVYYCQHSRDLPLTFGGGTKVEIKR
Consider B13, for which the “luciferase reporter gene fluorescence signal, Jurkat-NFAT-PD1 effector cells with Hep3B-OS8-PDL1 target cells (EC50)” value in assay [3] turned out to be 0.091 nM.
